To fix the notation:
B4: His-tagged N20C (Asn20 replaced with Cys) TRAP (natural protein, B. subtilis, UniProt P19466 1-75, looked up)
chain: MNQKHSSDFVVIKAVEDGVCVIGLTRGTDTKFHHSEKLDKGEVIIAQFTEHTSAIKVRGEALIQTAYGEMKSEKK
notes: TRAP of Bacillus subtilis (mtrB), 75 amino acid subunit, with Asn20 replaced by Cys; six histidine residues at the carboxy terminus of each subunit; Cross-linking was done in the presence of 1 mM tryptophan; also called N20C TRAP; N20C TRAP 11mer; source: purified using Ni-agarose; not shown: His6, C-terminal, kept; copies: 11

Series [1] addresses T1, TRAP-AT = 1:1 complex, (N20C)1(WT)10 TRAP 11mer crosslinked with BMOE to one D7C AT trimer N20C;D7C (Bacillus subtilis) (UniProt P19466+P19466+O31466).
T1 sequence 1: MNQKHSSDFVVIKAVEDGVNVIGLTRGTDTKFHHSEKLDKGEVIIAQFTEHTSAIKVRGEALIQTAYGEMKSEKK
T1 sequence 2: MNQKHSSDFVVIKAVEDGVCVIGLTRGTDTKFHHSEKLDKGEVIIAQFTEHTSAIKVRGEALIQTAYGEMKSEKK
T1 sequence 3: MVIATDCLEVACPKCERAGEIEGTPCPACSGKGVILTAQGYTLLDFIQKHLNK
In words: filter binding. The following applies: Filter binding: 16 mM Tris pH 8.0, 250 mM KCl, 1 mM tryptophan, 10 ug yeast RNA, 37 C, 20 min. Pull-down: 20 mM Tris-HCl pH 8.0, 6 mM MgCl2, 2 mM DTT, 100 mM ….

The target in series [2] is T2, TRAP (trp RNA binding Attenuation Protein), WT (Bacillus subtilis) (UniProt P19466).
T2 sequence: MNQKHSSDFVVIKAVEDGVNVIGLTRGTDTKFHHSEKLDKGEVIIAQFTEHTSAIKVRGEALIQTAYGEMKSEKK
Description: filter binding. As to conditions: Filter binding: 16 mM Tris pH 8.0, 250 mM KCl, 1 mM tryptophan, 10 ug yeast RNA, 37 C, 20 min. Pull-down: 20 mM Tris-HCl pH 8.0, 6 mM MgCl2, 2 mM DTT, 100 mM ….

Series [3] deals with T2, TRAP (trp RNA binding Attenuation Protein), WT (Bacillus subtilis). In words: pull-down of blocked TEC, immunoblot. As to conditions: Filter binding: 16 mM Tris pH 8.0, 250 mM KCl, 1 mM tryptophan, 10 ug yeast RNA, 37 C, 20 min. Pull-down: 20 mM Tris-HCl pH 8.0, 6 mM MgCl2, 2 mM DTT, 100 mM …. (In general: In western blotting, separated proteins are transferred to a membrane and probed.)

Series [4] deals with T3, trp RNA binding Attenuation Protein (TRAP), wild type, 11mer (B. subtilis) (UniProt P19466).
T3 sequence: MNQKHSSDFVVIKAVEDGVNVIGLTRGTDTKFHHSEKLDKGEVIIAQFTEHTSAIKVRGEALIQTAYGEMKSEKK

Series [5] deals with the molecule itself. Description: cross-linking; BMOE (0.04 mM, 8 Å sulfhydryl cross-linker); N20C TRAP 0.02 mM and/or D7C AT 0.08 mM; 1 mM tryptophan; PBS pH 7.2, 0.5 mM EDTA; 37°C 1 h; 15% SDS gel, Coomassie.
Series [6] deals with B4. Description: pull-down; limiting His-tagged N20C TRAP mixed with 50-fold excess WT TRAP, denatured in 5 M guanidine-HCl 1 h at room temperature, renatured by dialysis in 50 mM phosphate pH 8.0; hetero-11mers held on Ni agarose. As to conditions: both partners purified.

By Kd is commonly meant the free concentration of one partner at which half of the binding sites on the other are occupied at equilibrium, for simple one-to-one binding. Turning to “GAGUUGAGUUGAGUUGAGUUGAGUUGAGUUGAGUUGAGUUGAGUUGAGUUGAGUU [(GAGUU)11 RNA]”, the Kd in series [1] turned out to be 3.7 nM; in series [2], 0.55 nM.
For “Δ9-11Eco116 nascent trp leader RNA (7 repeats exposed)”, in series [3], the binding signal is 100 % TRAP bound.
“Δ10-11Eco116 nascent trp leader RNA (8 repeats exposed)” displayed a binding signal in series [3] of 100 % TRAP bound.
On the same count and under the same terms, with “Eco116 nascent trp leader RNA (~11 repeats exposed)” the figure was 100 % TRAP bound.

B1: Anti-TRAP (AT), wild type, trimer (natural protein)
chain: MVIATDDLEVACPKCERAGEIEGTPCPACSGKGVILTAQGYTLLDFIQKHLNK
On to B1, for which the in vitro transcription attenuation, Eco116 template; percent of transcripts terminated when AT was added after TRAP had bound the nascent transcript (post) in series [4] is 80%.

B2: AT containing a Cys substitution at residue 7 (D7C AT) (natural protein, B. subtilis, UniProt O31466 1-53, looked up)
chain: MVIATDCLEVACPKCERAGEIEGTPCPACSGKGVILTAQGYTLLDFIQKHLNK
notes: Anti-TRAP (AT) of Bacillus subtilis with Asp7 replaced by Cys; source: purified as described by Chen and Gollnick (19)
As for B2, the binding result in series [5] is “binds”.

B3: trp RNA binding Attenuation Protein (TRAP), wild type, 11mer (natural protein, B. subtilis, UniProt P19466 1-75, looked up)
chain: MNQKHSSDFVVIKAVEDGVNVIGLTRGTDTKFHHSEKLDKGEVIIAQFTEHTSAIKVRGEALIQTAYGEMKSEKK
notes: 11 identical subunits of 75 amino acids in a ring; also called WT TRAP; TRAP 11mer; copies: 11
For B3, the binding result in series [6] was “binds”.
B4: in series [5], the binding result is recorded as “binds”.

The record behind these values is article PMC4027176, “Modulating TRAP-mediated transcription termination by AT during transcription of the leader region of the Bacillus subtilis trp operon” (Nucleic Acids Research, 2014).
